The target of test [1] is acetylcholine receptor. The experiment in a line: SPR, peptide at 10 uM. Background: SPR reads the build-up and loss of mass on a sensor chip optically.
Test [2] has as its target acetylcholine receptor. Briefly: SPR, AchR immobilized on chip, peptide 10 uM.

B1: 6mer-2-1128 (peptide)
peptide: KNCMRK
B1: in test [1], the Binding affinity came out at 36 RU.

B2: 6mer-2-1125 (peptide)
peptide: RDAFKK
For B2, the Binding affinity in test [1] was 30 RU.

B3: 6mer-2-1102 (peptide)
peptide: KHKGKR
As for B3, the Binding affinity in test [1] amounted to 32 RU.

B4: 6mer-2-1104 (peptide)
peptide: RYTKKR
Consider B4, for which the Binding affinity in test [1] was found to be 38 RU.

B5: 5mer-494 (peptide)
peptide: RGFCK
In the case of B5, the Binding affinity (RU) in test [2] turned out to be 54 RU.

B6: 5mer-191 (peptide)
peptide: RVRCR
In turn, B6 showed a Binding affinity (RU) in test [2] of 75 RU.

B7: 5mer-492 (peptide)
peptide: RVVLR
Molecule B7 had a Binding affinity (RU) in test [2] of 80 RU.

B8: 5mer-190 (peptide)
peptide: RWRSR
In test [2], B8 displayed a Binding affinity (RU) of 84 RU.

B9: 5mer-185 (peptide)
peptide: RRYRR
Regarding B9, the Binding affinity (RU) in test [2] is 86 RU.

B10: 6mer-2-1105 (peptide)
peptide: RNNAKK
B10 came in with a Binding affinity in test [1] of 28 RU.

B11: 6mer-2-1109 (peptide)
peptide: KEDMRK
B11 yielded a Binding affinity in test [1] of 26 RU.

B12: 6mer-2-1117 (peptide)
peptide: RMHVKR
As for B12, the Binding affinity in test [1] came out at 21 RU.

B13: 6mer-2-1099 (peptide)
peptide: REDWRR
As for B13, in test [1], the Binding affinity came to 21 RU.

B14: 6mer-2-1110 (peptide)
peptide: RMTKKK
In the case of B14, the Binding affinity in test [1] came to 37 RU.

B15: 6mer-2-1124 (peptide)
peptide: RKTWRK
On to B15, for which the Binding affinity in test [1] was determined as 39 RU.

B16: 5mer-197 (peptide)
peptide: RSRQK
The molecule B16 had a Binding affinity (RU) in test [2] of 68 RU.

B17: 5mer-486 (peptide)
peptide: RWLQR
Take B17: the Binding affinity (RU) in test [2] was 53 RU.

B18: 6mer-2-1107 (peptide)
peptide: RAHERK
In test [1], B18 gave a Binding affinity of 29 RU.

B19: 5mer-496 (peptide)
peptide: KGIQK
The molecule B19 displayed a Binding affinity (RU) in test [2] of 81 RU.

B20: 6mer-2-1118 (peptide)
peptide: RFDGRR
Turning to B20, in test [1], the Binding affinity came to 42 RU.

B21: 5mer-186 (peptide)
peptide: KRLQR
In the case of B21, in test [2], the Binding affinity (RU) is 64 RU.

B22: 6mer-2-1119 (peptide)
peptide: KCTVRK
Molecule B22 gave a Binding affinity in test [1] of 39 RU.

B23: 5mer-196 (peptide)
peptide: RSYYR
Take B23: in test [2], the Binding affinity (RU) stood at 69 RU.

B24: 6mer-2-1100 (peptide)
peptide: RTAPKK
In the case of B24, the Binding affinity in test [1] was 24 RU.

B25: 6mer-2-1122 (peptide)
peptide: RCNFKK
In the case of B25, the Binding affinity in test [1] came out at 22 RU.

B26: 6mer-2-1126 (peptide)
peptide: RHEVRR
As to B26, in test [1], the Binding affinity came to 23 RU.

B27: 5mer-485 (peptide)
peptide: KRQRK
For B27, in test [2], the Binding affinity (RU) came to 58 RU.

B28: 6mer-2-1135 (peptide)
peptide: RANWKR
The molecule B28 came in with a Binding affinity in test [1] of 29 RU.

B29: 6mer-2-1134 (peptide)
peptide: KYENRK
As to B29, in test [1], the Binding affinity worked out at 30 RU.

B30: 6mer-2-1103 (peptide)
peptide: RDAWRK
B30 registered a Binding affinity in test [1] of 42 RU.

B31: 5mer-183 (peptide)
peptide: KRVYR
B31: in test [2], the Binding affinity (RU) amounted to 64 RU.

B32: 5mer-189 (peptide)
peptide: RLLQK
Regarding B32, the Binding affinity (RU) in test [2] stood at 65 RU.

B33: 6mer-2-1127 (peptide)
peptide: KAAEKK
The molecule B33 gave a Binding affinity in test [1] of 42 RU.

B34: 6mer-2-1101 (peptide)
peptide: RTKMRR
B34: the Binding affinity in test [1] was determined as 38 RU.

B35: 5mer-483 (peptide)
peptide: RSISR
The molecule B35 gave a Binding affinity (RU) in test [2] of 51 RU.

B36: 6mer-2-1130 (peptide)
peptide: RHSFRK
On to B36, for which, in test [1], the Binding affinity came out at 29 RU.

B37: 6mer-2-1132 (peptide)
peptide: RPWERR
The molecule B37 came in with a Binding affinity in test [1] of 32 RU.

B38: 5mer-198 (peptide)
peptide: KLISR
In test [2], B38 came in with a Binding affinity (RU) of 74 RU.

B39: 5mer-493 (peptide)
peptide: KSIRR
In test [2], B39 displayed a Binding affinity (RU) of 57 RU.

B40: 5mer-488 (peptide)
peptide: KVRSR
In turn, B40 registered a Binding affinity (RU) in test [2] of 58 RU.

B41: 5mer-498 (peptide)
peptide: KLISK
B41 yielded a Binding affinity (RU) in test [2] of 53 RU.

B42: 5mer-497 (peptide)
peptide: KRRCR
With B42, the Binding affinity (RU) in test [2] stood at 76 RU.

B43: 6mer-2-1133 (peptide)
peptide: KMKMKK
Molecule B43 yielded a Binding affinity in test [1] of 22 RU.

B44: 5mer-194 (peptide)
peptide: KWQSK
In test [2], B44 showed a Binding affinity (RU) of 84 RU.

B45: 6mer-2-1113 (peptide)
peptide: KPNFRK
In the case of B45, the Binding affinity in test [1] is 43 RU.

B46: 6mer-2-1131 (peptide)
peptide: RTNAKR
As for B46, in test [1], the Binding affinity worked out at 26 RU.

B47: 6mer-2-1112 (peptide)
peptide: RASWRK
The molecule B47 returned a Binding affinity in test [1] of 26 RU.

B48: 5mer-187 (peptide)
peptide: RWVCR
As for B48, the Binding affinity (RU) in test [2] came to 74 RU.

B49: 6mer-2-1129 (peptide)
peptide: RITGKR
In test [1], B49 returned a Binding affinity of 42 RU.

B50: 6mer-2-1115 (peptide)
peptide: KYSPRK
B50 gave a Binding affinity in test [1] of 39 RU.

B51: 5mer-491 (peptide)
peptide: KQIRR
B51 returned a Binding affinity (RU) in test [2] of 81 RU.

B52: 5mer-192 (peptide)
peptide: KSFRK
As for B52, in test [2], the Binding affinity (RU) came out at 75 RU.

B53: 6mer-2-1121 (peptide)
peptide: KPSKRR
Regarding B53, the Binding affinity in test [1] is 21 RU.

B54: 5mer-487 (peptide)
peptide: RLVTK
Consider B54, for which the Binding affinity (RU) in test [2] is 62 RU.

B55: 5mer-489 (peptide)
peptide: KSYSR
For the molecule B55, the Binding affinity (RU) in test [2] came to 63 RU.

B56: 6mer-2-1114 (peptide)
peptide: RKKFRK
In test [1], B56 displayed a Binding affinity of 34 RU.

B57: 5mer-188 (peptide)
peptide: KWFSK
B57 returned a Binding affinity (RU) in test [2] of 82 RU.

B58: 6mer-2-1106 (peptide)
peptide: KDKVKR
The molecule B58 returned a Binding affinity in test [1] of 28 RU.

B59: 6mer-2-1116 (peptide)
peptide: KMEVKK
In test [1], B59 returned a Binding affinity of 31 RU.

B60: 5mer-495 (peptide)
peptide: KVVTK
As to B60, the Binding affinity (RU) in test [2] amounted to 52 RU.

B61: 5mer-490 (peptide)
peptide: RWLLK
In turn, B61 yielded a Binding affinity (RU) in test [2] of 60 RU.

B62: 5mer-195 (peptide)
peptide: KVVSR
In the case of B62, the Binding affinity (RU) in test [2] amounted to 82 RU.

B63: 5mer-193 (peptide)
peptide: RVIRK
Regarding B63, the Binding affinity (RU) in test [2] stood at 80 RU.

B64: 5mer-482 (peptide)
peptide: KQFCK
As for B64, in test [2], the Binding affinity (RU) was determined as 75 RU.

B65: 6mer-2-1111 (peptide)
peptide: REDEKK
In turn, B65 displayed a Binding affinity in test [1] of 23 RU.

B66: 6mer-2-1120 (peptide)
peptide: RDMMKK
In the case of B66, in test [1], the Binding affinity was found to be 28 RU.

B67: 5mer-484 (peptide)
peptide: RSFQK
In test [2], B67 had a Binding affinity (RU) of 51 RU.

B68: 5mer-182 (peptide)
peptide: RVLSK
Turning to B68, the Binding affinity (RU) in test [2] was 70 RU.

B69: 5mer-481 (peptide)
peptide: KSYCK
In the case of B69, the Binding affinity (RU) in test [2] turned out to be 78 RU.

B70: 6mer-2-1123 (peptide)
peptide: RITARR
Turning to B70, in test [1], the Binding affinity is 36 RU.

B71: 5mer-184 (peptide)
peptide: KLQCR
For B71, in test [2], the Binding affinity (RU) came out at 68 RU.

B72: 6mer-2-1108 (peptide)
peptide: KKKVRR
B72 showed a Binding affinity in test [1] of 36 RU.

These data come from US20250011363A1, “OPTIMIZED SHORTENED PEPTIDE THAT BINDS TO ACETYLCHOLINE RECEPTOR, AND USE THEREOF” (SKINMED CO., LTD., priority 2021, published 2025).
